Here are results for one molecule from patent US20240052042A1 (Novartis, published 2024).

Experiment [1] concerns the target T1, human NPR1 on CHO-K1 cells (human, UniProt P16066 33-1061).
T1 sequence: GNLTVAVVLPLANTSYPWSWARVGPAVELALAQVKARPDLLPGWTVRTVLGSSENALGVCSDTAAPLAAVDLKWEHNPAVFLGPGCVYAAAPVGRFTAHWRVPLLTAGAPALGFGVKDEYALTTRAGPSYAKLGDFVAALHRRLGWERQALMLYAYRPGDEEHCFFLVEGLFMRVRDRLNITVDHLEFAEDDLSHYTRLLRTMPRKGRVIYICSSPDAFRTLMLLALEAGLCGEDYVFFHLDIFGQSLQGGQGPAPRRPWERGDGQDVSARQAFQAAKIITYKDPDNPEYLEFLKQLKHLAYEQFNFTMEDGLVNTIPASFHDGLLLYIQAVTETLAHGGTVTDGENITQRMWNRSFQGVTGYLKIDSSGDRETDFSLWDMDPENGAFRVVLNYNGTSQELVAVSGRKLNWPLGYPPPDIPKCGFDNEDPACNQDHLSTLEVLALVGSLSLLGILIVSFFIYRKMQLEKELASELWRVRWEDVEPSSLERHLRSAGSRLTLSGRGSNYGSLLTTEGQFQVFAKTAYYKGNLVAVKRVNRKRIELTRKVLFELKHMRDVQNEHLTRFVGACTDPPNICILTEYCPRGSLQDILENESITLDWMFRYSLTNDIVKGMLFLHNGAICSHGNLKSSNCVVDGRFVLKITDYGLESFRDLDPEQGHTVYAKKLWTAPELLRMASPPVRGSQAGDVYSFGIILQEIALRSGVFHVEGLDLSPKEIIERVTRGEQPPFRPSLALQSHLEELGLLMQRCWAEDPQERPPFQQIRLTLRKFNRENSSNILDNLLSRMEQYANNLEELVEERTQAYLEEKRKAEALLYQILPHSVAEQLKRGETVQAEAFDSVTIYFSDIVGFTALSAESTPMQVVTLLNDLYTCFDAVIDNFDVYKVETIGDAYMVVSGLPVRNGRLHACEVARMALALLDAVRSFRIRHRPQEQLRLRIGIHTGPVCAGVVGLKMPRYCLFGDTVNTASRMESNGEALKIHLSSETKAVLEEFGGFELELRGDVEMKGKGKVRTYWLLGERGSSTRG
Put plainly: cell-based or functional assay.

In experiment [2] the target is T2, rat NPR1 (rNPR1) (rat, UniProt P18910 29-469, limits assumed).
T2 construct: Soluble antigen
T2 sequence: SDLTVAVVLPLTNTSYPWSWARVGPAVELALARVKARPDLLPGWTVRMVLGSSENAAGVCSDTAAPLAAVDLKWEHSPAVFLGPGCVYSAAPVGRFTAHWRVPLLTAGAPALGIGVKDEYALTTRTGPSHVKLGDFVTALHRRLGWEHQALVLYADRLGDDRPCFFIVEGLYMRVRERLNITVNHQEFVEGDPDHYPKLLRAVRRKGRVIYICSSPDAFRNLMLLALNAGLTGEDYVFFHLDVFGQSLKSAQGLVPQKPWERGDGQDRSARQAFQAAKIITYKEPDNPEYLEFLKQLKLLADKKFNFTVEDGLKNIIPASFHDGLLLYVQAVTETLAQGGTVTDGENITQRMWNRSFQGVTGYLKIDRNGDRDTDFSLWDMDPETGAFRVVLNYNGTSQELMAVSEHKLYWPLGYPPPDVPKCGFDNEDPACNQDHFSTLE
The experiment can be described thus: FabCys affinity (Octet per Table 18 comment). In general terms: In BLI a coated tip is dipped into the sample, and binding shifts an interference pattern.

Experiment [3] concerns the target T3, hNPR1-ANP complex (human, UniProt P01160 124-151, limits assumed).
T3 construct: hNPR1 antigen in the presence of ANP; also called hNPR1 + 100 nM ANP
T3 sequence: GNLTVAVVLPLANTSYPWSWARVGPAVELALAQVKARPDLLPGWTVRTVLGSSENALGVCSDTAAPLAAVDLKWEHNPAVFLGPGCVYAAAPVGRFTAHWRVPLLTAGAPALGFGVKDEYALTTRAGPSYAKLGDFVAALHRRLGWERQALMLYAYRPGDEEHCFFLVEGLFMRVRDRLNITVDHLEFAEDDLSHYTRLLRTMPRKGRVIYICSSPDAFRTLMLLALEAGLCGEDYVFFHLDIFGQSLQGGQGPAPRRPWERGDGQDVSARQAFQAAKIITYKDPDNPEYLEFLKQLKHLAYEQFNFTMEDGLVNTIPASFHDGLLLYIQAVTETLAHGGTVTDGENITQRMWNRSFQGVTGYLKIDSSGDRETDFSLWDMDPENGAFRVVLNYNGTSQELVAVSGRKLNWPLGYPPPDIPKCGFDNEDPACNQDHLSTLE
T3 sequence (peptide): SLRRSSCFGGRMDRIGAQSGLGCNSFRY
Put plainly: FabCys affinity (Octet per Table 18 comment).

Experiment [4] concerns the target T4, rNPR1-ANP complex (rat, UniProt P01160 124-151 (human entry), limits assumed).
T4 construct: rNPR1 antigen in the presence of ANP; also called rNPR1 + 100 nM ANP
T4 sequence: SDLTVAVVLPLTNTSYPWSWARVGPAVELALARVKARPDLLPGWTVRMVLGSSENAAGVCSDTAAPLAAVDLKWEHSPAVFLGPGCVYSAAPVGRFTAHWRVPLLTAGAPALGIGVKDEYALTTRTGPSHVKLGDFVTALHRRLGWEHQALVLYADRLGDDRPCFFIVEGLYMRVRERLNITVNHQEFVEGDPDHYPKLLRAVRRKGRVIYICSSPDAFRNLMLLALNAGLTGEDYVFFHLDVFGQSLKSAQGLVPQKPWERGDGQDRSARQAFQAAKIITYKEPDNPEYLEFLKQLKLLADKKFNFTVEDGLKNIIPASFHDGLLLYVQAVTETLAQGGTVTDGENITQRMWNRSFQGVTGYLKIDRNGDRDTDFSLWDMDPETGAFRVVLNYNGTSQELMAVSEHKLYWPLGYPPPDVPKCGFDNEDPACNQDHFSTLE
T4 sequence (peptide): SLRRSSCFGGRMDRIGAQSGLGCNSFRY
The experiment can be described thus: FabCys affinity (Octet per Table 18 comment).

Experiment [5] addresses T5, human Natriuretic Peptide Receptor 1 (hNPR1) (human, UniProt P16066 33-473, limits assumed).
T5 construct: pannings used NPR1-hFc; also called NPR1-hFc
T5 sequence: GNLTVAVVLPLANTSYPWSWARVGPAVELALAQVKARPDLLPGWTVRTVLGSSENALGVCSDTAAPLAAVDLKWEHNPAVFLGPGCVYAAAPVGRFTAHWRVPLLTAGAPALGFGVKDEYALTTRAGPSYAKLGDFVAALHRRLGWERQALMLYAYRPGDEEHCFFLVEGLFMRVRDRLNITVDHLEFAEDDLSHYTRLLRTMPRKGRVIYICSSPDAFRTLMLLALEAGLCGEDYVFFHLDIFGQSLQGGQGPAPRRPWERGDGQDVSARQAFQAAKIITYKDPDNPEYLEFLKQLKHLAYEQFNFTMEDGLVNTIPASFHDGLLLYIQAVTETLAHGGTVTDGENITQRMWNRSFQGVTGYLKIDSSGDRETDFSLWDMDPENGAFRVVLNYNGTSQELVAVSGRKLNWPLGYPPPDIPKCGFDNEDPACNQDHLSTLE
The experiment can be described thus: FabCys affinity (Octet per Table 18 comment).

The target in experiment [6] is T2, rat NPR1 (rNPR1). Put plainly: FabCys, parental value by Octet, assay limit reached (table comment), as in Table 14.
Experiment [7] has as its target T3, hNPR1-ANP complex. The description is as above.
Experiment [8] concerns the target T4, rNPR1-ANP complex. The description is as above.
In experiment [9] the target is T5, human Natriuretic Peptide Receptor 1 …. The description is as above.

B1: YY05 (FabCys format) (Fab, V domains shown)
VH: EVQLVQSGAEVKKPGESLKISCKGSGYSFTSYWISWVRQMPGKGLEWMGIIYPGTSYTRYSPSFQGQVTISADKSISTAYLQWSSLKASDTAMYYCARGAVAGQLGFDHWGQGTLVTVSS
VL: QSVLTQPPSVSGAPGQRVTISCTGSSSNIGAGYDVHWYQQLPGTAPKLLIYGNSNRPSGVPDRFSGSKSGTSASLAITGLQAEDEADYYCQSYYTSSHGPVFGGGTKLTVL
notes: Monovalent FabCys
For the molecule B1, the “cGMP conc [nM] at 1 µM FabCys, +0.075 nM ANP” value in experiment [1] amounted to 227 nM. Also, the “cGMP conc [nM] at 1 µM FabCys, without ANP” value in experiment [1] stood at 207 nM. Besides, the Kd was 700 nM with rat NPR1 (rNPR1) [2]; 350 nM with hNPR1-ANP complex [3]; 16000 nM with rNPR1-ANP complex [4]; 0.9 nM in experiment [5]; 700 nM in the experiment with rat NPR1 (rNPR1) [6]; 350 nM in the experiment with hNPR1-ANP complex [7]. Besides, the Kd with rNPR1-ANP complex [8] turned out to be 16000 nM; in experiment [9], 0.9 nM.

As a reminder, the Kd is the concentration at which binding is half-saturated.
